# Measurements reported in the supplement of paper PMC10724198.
# ± gives the standard deviation of the averaged measurements.
# Tested on: Saccharomyces cerevisiae
# Experiment: protein stability index of tFT-peptide fusion (C-terminal peptide) (PSI (0-1 scale)); higher = more stable (slower turnover)
# Settings: genetic background: wild type; temperature: 30 C
# Method: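 Multiplexed protein stability (MPS) profiling in S. cerevisiae. Random 12-aa peptides (tFT-X12 library) are fused to the C-terminus of a sfGFP-mCherry tandem fluorescent timer, after mCherry and a GGGS linker. Cells are FACS-sorted into 8 mCherry/sfGFP bins and deep-sequenced. The protein stability index (PSI) is the read-weighted bin average, scaled from 0 (unstable) to 1 (stable). Only peptides with >10 reads are reported; cells were grown at 30 °C in SC-His with glucose.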
# 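Note: PSI is a weighted mean of sequencing reads over stability bins, variants kept only with over 10 reads, mCherry proximal and sfGFP distal, peptide attached via GGGS linker.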
row,Sequence,protein stability index
1,FAARASLSPLTR,0.855 ± 0.2
2,FAFSDFHLVVFF,0.684 ± 0.011
3,FALRDLHLSCFA,0.577 ± 0.012
4,FANKLYSVFMDN,0.655 ± 0.13
5,FAPTRAAPVTVS,0.5712 ± 0.0057
6,FAPVPPRATFSH,0.691 ± 0.022
7,FASFLSIPTRFS,0.712 ± 0.02
8,FCCFFFPALCCL,0.493 ± 0.024
9,FCCVETRRCVRL,0.717 ± 0.16
10,FCGDDVCLTHFG,0.729 ± 0.029
11,FCLGSVIWERDS,0.625 ± 0.076
12,FCLLSCDTFSSS,0.6318 ± 0.0042
13,FCLPVFCVPSHF,0.634 ± 0.11
14,FCRKVFFALRRF,0.612 ± 0.095
15,FCSCSCEFVPRS,0.618 ± 0.039
16,FCSLLDSLVGGC,0.745 ± 0.072
17,FCSQNLQMNQLS,0.6 ± 0.041
18,FCVFSDVSRFSY,0.701 ± 0.082
19,FCVVGKGWKGEG,0.626 ± 0.0098
20,FCWLCRFADSPF,0.733 ± 0.078
21,FDDSNSRTGPVQ,0.692 ± 0.11
22,FDGRVTALRVRL,0.724 ± 0.033
23,FDITGAGLDSSF,0.7904 ± 0.0053
24,FDSSLFTVSQYH,0.768 ± 0.084
25,FDSYVNHRLNRD,0.608 ± 0.057
26,FDVAPTSRVNFL,0.724 ± 0.06

row,Sequence,protein stability index
1,FERRGSSFWGGC,0.7 ± 0.032
2,FESGINWLLSDK,0.672 ± 0.06
3,FFACHDGYWCGC,0.778 ± 0.036
4,FFAGELGVYCLV,0.596 ± 0.033
5,FFAPSRLHHLSL,0.772 ± 0.071
6,FFFPLLLLSPPI,0.535 ± 0.015
7,FFGGAGGTEGLG,0.689 ± 0.048
8,FFMNGLWGLSVR,0.612 ± 0.0092
9,FFPARPPPPPPR,0.769 ± 0.04
10,FFPELSNLHPPS,0.708 ± 0.017
11,FFPFSLFPLPPS,0.744 ± 0.066
12,FFPPPSSFCLSL,0.772 ± 0.069
13,FFRSFVVGSVLV,0.567 ± 0.0064
14,FFSPSSVSVGVR,0.65 ± 0.076
15,FFSRSPVFSFDF,0.8218 ± 0.0017
16,FFSSSDRQLSNQ,0.716 ± 0.041
17,FFSSTVFLLFLP,0.569 ± 0.025
18,FFTPSKQSQAYC,0.662 ± 0.027
19,FFVIIPAKSWLG,0.546 ± 0.03
20,FFVRCTEWLGED,0.6161 ± 0.0039
21,FGAEWRGVLSGC,0.773 ± 0.013
22,FGARVWVGRVGG,0.657 ± 0.069
23,FGCCCGGGLLGV,0.711 ± 0.027
24,FGCRARYDLVLI,0.641 ± 0.098
25,FGFHSLSISFFM,0.611 ± 0.035
26,FGFLELTDPHGC,0.576 ± 0.023

row,Sequence,protein stability index
1,FGGFVPSSQCLI,0.712 ± 0.018
2,FGGGGLAPSLQS,0.602 ± 0.044
3,FGGKLVTHGISY,0.673 ± 0.054
4,FGGTAVAGLFDL,0.725 ± 0.061
5,FGIRGMTSVGSP,0.675 ± 0.088
6,FGKWSWGECEGS,0.69 ± 0.032
7,FGLPFPSNIVSG,0.757 ± 0.024
8,FGLPGGVTVVTW,0.757 ± 0.14
9,FGQSKFAMKGVR,0.708 ± 0.0086
10,FGRAGAGERRGA,0.722 ± 0.28
11,FGRSGDGVGGLA,0.667 ± 0.026
12,FGRVRFCFRMRS,0.671 ± 0.025
13,FGSSLVVSMVFD,0.704 ± 0.015
14,FGTATPPPTLPP,0.727 ± 0.02
15,FGVLGCGFLLSL,0.688 ± 0.018
16,FGVVCIGVLGGV,0.5361 ± 0.0014
17,FGVVLEGAGWGG,0.73742 ± 0.00056
18,FGYAGGSRVLGS,0.68 ± 0.0095
19,FGYCFYRFHLQR,0.666 ± 0.049
20,FGYGLPFPERVE,0.781 ± 0.046
21,FHPTCAPLPCPP,0.663 ± 0.038
22,FHPVLPMSFRHV,0.666 ± 0.029
23,FHSRGVASPQPP,0.682 ± 0.018
24,FHTLCLGPCTVI,0.675 ± 0.035
25,FISVFALWDVFL,0.7 ± 0.01
26,FISYFRFDRFGS,0.699 ± 0.029

row,Sequence,protein stability index
1,FKVVLGRLGVRA,0.53638 ± 6.4e-06
2,FLAPPPDVGQLV,0.692 ± 0.038
3,FLCNSVAGSLCI,0.643 ± 0.022
4,FLCSLAPHRPLL,0.704 ± 0.033
5,FLFHAIGTCRLC,0.671 ± 0.015
6,FLFLTCPFSFSF,0.633 ± 0.018
7,FLFVVSFGGAVA,0.512 ± 0.0061
8,FLGGDVVGVFVG,0.658 ± 0.059
9,FLISLPLPAPLP,0.679 ± 0.013
10,FLLCLWIFFFGS,0.482 ± 0.028
11,FLLFIRGFSGCR,0.624 ± 0.018
12,FLLVCLNDVLRP,0.588 ± 0.062
13,FLPLPRPRLLLP,0.617 ± 0.0076
14,FLPPPPTPSPPY,0.723 ± 0.043
15,FLPPPPVLPSLP,0.697 ± 0.024
16,FLPTALTQPLIT,0.624 ± 0.028
17,FLQIPVQILPDP,0.705 ± 0.027
18,FLRLSPQFASFP,0.677 ± 0.083
19,FLSWSLPCITFR,0.571 ± 0.051
20,FLTCTTSLPFVP,0.728 ± 0.13
21,FLVSPFTLFPFS,0.754 ± 0.12
22,FMHCLLAQFAGL,0.705 ± 0.11
23,FNSFPPSPSLRP,0.729 ± 0.012
24,FNVSCLRPNMGE,0.712 ± 0.044
25,FPATSTCTFALY,0.665 ± 0.0012
26,FPCVAVFVESNR,0.647 ± 0.049

row,Sequence,protein stability index
1,FPFSSFSGRCVD,0.6697 ± 0.0042
2,FPHRHAPYPSAI,0.7 ± 0.035
3,FPLIFALFPTFF,0.603 ± 0.0067
4,FPLPPHSSPLPP,0.695 ± 0.037
5,FPPHPPPPPPLN,0.743 ± 0.041
6,FPPLIPLPINHP,0.631 ± 0.1
7,FPPLLASPPPSP,0.705 ± 0.011
8,FPPLRSLPPTPP,0.793 ± 0.12
9,FPPPLCLHRPIP,0.786 ± 0.1
10,FPPPLHFPPLPA,0.723 ± 0.055
11,FPPPPPRPPRLP,0.68 ± 0.075
12,FPPPPRPPLSFP,0.711 ± 0.078
13,FPPPSPPPLSPC,0.689 ± 0.024
14,FPQHPLFDPPAF,0.793 ± 0.013
15,FPRLTYAPFLAD,0.722 ± 0.02
16,FPRPLPPLSPLL,0.7162 ± 0.0037
17,FPSCSAGLHLNL,0.7521 ± 0.0034
18,FPSFHLCNIPST,0.757 ± 0.076
19,FPSPPPGPHPSP,0.76336 ± 0.00013
20,FPSSLPSAFPCP,0.675 ± 0.016
21,FPSSPPAHAAPH,0.68 ± 0.019
22,FPVWVKGLLGMG,0.636 ± 0.048
23,FQPQPSPAHPSH,0.693 ± 0.023
24,FRFNPGSCSRPV,0.681 ± 0.016
25,FRLICSRQFFAG,0.593 ± 0.018
26,FRPLPPPPPSPT,0.672 ± 0.052

row,Sequence,protein stability index
1,FRQQGGERVRWG,0.66 ± 0.0088
2,FRSPRFLRSPPR,0.793 ± 0.064
3,FRTLVEAGSLMD,0.6995 ± 0.00077
4,FRVEWKPLYHGI,0.623 ± 0.037
5,FRVHSFRLSCLS,0.574 ± 0.022
6,FSAVRIQASLRW,0.629 ± 0.028
7,FSCPALCSCLAV,0.604 ± 0.087
8,FSFLFSFFFSFL,0.55971 ± 7.1e-07
9,FSFVPRHGVSFR,0.6349 ± 0.0059
10,FSFVTFYSICDV,0.528 ± 0.012
11,FSGGGRGLGGEV,0.684 ± 0.024
12,FSHRPSPLSLSL,0.719 ± 0.11
13,FSKSRLRNLKLK,0.655 ± 0.016
14,FSLGQCLFGLWV,0.612 ± 0.026
15,FSLHPGTYLVVL,0.5913 ± 0.0026
16,FSLSVVGLSRWG,0.78 ± 0.1
17,FSLTPSDPFPPA,0.681 ± 0.043
18,FSLYSFSSSFSF,0.677 ± 0.033
19,FSPLARMGSGTL,0.701 ± 0.0073
20,FSPPSPPHPSPL,0.741 ± 0.023
21,FSPSPPPPAPLH,0.729 ± 0.13
22,FSRCRRGLVLCL,0.479 ± 0.045
23,FSRLNAKLPCLA,0.579 ± 0.06
24,FSSSSVRINLGV,0.663 ± 0.01
25,FSTIWSLPLSPR,0.716 ± 0.038
